According to PMC5624926 (2017):
Like-named read-outs stand apart in the source and are kept apart here.

What was measured:
CD22_(20–687) [1] = molecular target: T1, CD22_(20–687) (human, UniProt P20273 20-687, N-linked glycans; glycoform not stated); experiment: BLI
CD22_(20–687) [2] = molecular target: T1, CD22_(20–687); experiment: BLI; remark: listed apart in the source

Row | Binder | Kd (CD22_(20–687) [1]) | Kd (CD22_(20–687) [2])
1 | epratuzumab Y(L27D)A (antibody, V domains shown) VH: QVQLVQSGAEVKKPGSSVKVSCKASGYTFTSYWLHWVRQAPGQGLEWIGYINPRNDYTEYNQNFKDKATITADESTNTAYMELSSLRSEDTAFYFCARRDITTFYWGQGTTVTVSS VL: DIQLTQSPSSLSASVGDRVTMSCKSSQSVLASANHKNYLAWYQQKPGKAPKLLIYWASTRESGVPSRFSGSGSGTDFTLTISSLQPEDIATYYCHQYLSSWTFGGGTKLEIKR | 1700 nM | 
2 | epratuzumab N(H52)A (antibody, V domains shown) VH: QVQLVQSGAEVKKPGSSVKVSCKASGYTFTSYWLHWVRQAPGQGLEWIGYIAPRNDYTEYNQNFKDKATITADESTNTAYMELSSLRSEDTAFYFCARRDITTFYWGQGTTVTVSS VL: DIQLTQSPSSLSASVGDRVTMSCKSSQSVLYSANHKNYLAWYQQKPGKAPKLLIYWASTRESGVPSRFSGSGSGTDFTLTISSLQPEDIATYYCHQYLSSWTFGGGTKLEIKR | 260 nM | 
3 | epratuzumab Fab (Fab, V domains shown) VH: QVQLVQSGAEVKKPGSSVKVSCKASGYTFTSYWLHWVRQAPGQGLEWIGYINPRNDYTEYNQNFKDKATITADESTNTAYMELSSLRSEDTAFYFCARRDITTFYWGQGTTVTVSS VL: DIQLTQSPSSLSASVGDRVTMSCKSSQSVLYSANHKNYLAWYQQKPGKAPKLLIYWASTRESGVPSRFSGSGSGTDFTLTISSLQPEDIATYYCHQYLSSWTFGGGTKLEIK |  | 120 nM
